In paper PMC6993860 (Biochemical Journal, 2020):
Like-named read-outs stand apart in the source and are kept apart here.

Experiments:
[1] = target: the molecule itself; test: SEC
[2] = target: the molecule itself; test: SEC; remark: listed apart in the source

Protein | stoichiometry N [1] | stoichiometry N [2]
HtrA3 S305A (enzyme) LHQLSSPRYKFNFIADVVEKIAPAVVHIELFLRHPLFGRNVPLSSGSGFIMSEAGLIITNAHVVSSNSAAPGRQQLKVQLQNGDSYEATIKDIDKKSDIATIKIHPKKKLPVLLLGHSADLRPGEFVVAIGSPFALQNTVTTGIVSTAQREGRELGLRDSDMDYIQTDAIINYGNAGGPLVNLDGEVIGINTLKVTAGISFAIPSDRITRFLTEFQDKQIKDWKKRFIGIRMRTITPSLVDELKASNPDFPEVSSGIYVQEVAPNSPSQRGGIQDGDIIVKVNGRPLVDSSELQEAVLTESPLLLEVRRGNDDLLFSIAPEVVM | 3 | –
HtrA3 F142A (enzyme) LHQLSSPRYKFNAIADVVEKIAPAVVHIELFLRHPLFGRNVPLSSGSGFIMSEAGLIITNAHVVSSNSAAPGRQQLKVQLQNGDSYEATIKDIDKKSDIATIKIHPKKKLPVLLLGHSADLRPGEFVVAIGSPFALQNTVTTGIVSTAQREGRELGLRDSDMDYIQTDAIINYGNSGGPLVNLDGEVIGINTLKVTAGISFAIPSDRITRFLTEFQDKQIKDWKKRFIGIRMRTITPSLVDELKASNPDFPEVSSGIYVQEVAPNSPSQRGGIQDGDIIVKVNGRPLVDSSELQEAVLTESPLLLEVRRGNDDLLFSIAPEVVM | – | 3
